Reference: publication PMC12669584

Biological target: HIV-1 BaL envelope glycoprotein (Env) trimer on AT-2 inactivated virions (HIV-1 (BaL))
Experiment: cryo-EM structure

stoichiometry N (17b Abs per Env trimer): 3
Substance: anti-coreceptor binding site (CoRBS) antibody 17b (full IgG)
